Results reported in patent US20250025505A1 (BIONTECH, published 2025).

Columns and labels:
Experiment in all cases: recognition by CLDN6 CAR-T cells, non-clinical study; assay not described
CLDN9 = target: T1, CLDN9 (UniProt O95484 1-217, limits assumed)
T1 construct: also called claudin 9
T1 sequence (looked up): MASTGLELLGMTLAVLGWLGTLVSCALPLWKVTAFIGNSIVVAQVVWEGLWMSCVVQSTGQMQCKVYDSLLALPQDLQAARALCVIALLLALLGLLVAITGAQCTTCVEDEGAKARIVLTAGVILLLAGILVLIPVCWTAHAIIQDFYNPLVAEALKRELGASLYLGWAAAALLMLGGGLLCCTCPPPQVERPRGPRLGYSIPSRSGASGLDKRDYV

CLDN3 = target: T2, CLDN3 (UniProt O15551 1-220, limits assumed)
T2 construct: also called claudin 3
T2 sequence (looked up): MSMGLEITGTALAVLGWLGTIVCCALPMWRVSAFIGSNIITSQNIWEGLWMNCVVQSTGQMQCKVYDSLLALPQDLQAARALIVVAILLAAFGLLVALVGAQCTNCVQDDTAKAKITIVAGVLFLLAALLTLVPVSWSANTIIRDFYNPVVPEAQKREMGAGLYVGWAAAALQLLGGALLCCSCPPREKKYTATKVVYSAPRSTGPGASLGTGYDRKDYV

CLDN4 = target: T3, CLDN4 (UniProt O14493 1-209, limits assumed)
T3 construct: also called claudin 4
T3 sequence (looked up): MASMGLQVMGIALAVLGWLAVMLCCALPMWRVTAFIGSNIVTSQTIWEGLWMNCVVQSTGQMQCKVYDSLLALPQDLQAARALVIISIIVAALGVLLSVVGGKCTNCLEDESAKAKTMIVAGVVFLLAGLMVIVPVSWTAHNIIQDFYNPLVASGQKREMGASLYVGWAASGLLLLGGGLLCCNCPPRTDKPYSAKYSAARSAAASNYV

Measured: binding result

B1: CLDN6-CAR-CD8h-BBz (other)
chain: EVQLQQSGPELVKPGASMKISCKASGYSFTGYTMNWVKQSHGKNLEWIGLINPYNGGTIYNQKFKGKATLTVDKSSSTAYMELLSLTSEDSAVYYCARDYGFVLDYWGQGTTLTVSSGGGGSGGGGSGGGGSDIVLTQSPSIMSVSPGEKVTITCSASSSVSYMHWFQQKPGTSPKLSIYSTSNLASGVPARFSGRGSGTSYSLTISRVAAEDAATYYCQQRSNYPPWTFGGGTKLEIKRSDPATTTPAPRPPTPAPTIASQPLSLRPEACRPAAGGAVHTRGLDFACDIYIWAPLAGTCGVLLLSLVITLYCKRGRKKLLYIFKQPFMRPVQTTQEEDGCSCRFPEEEEGGCELRVKFSRSADAPAYKQGQNQLYNELNLGRREEYDVLDKRRGRDPEMGGKPRRKNPQEGLYNELQKDKMAEAYSEIGMKGERRRGKGHDGLYQGLSTATKDTYDALHMQALPPR
notes: Chimeric antigen receptor, tested on the surface of retrovirally transduced human (or murine) T cells; also called CLDN6-CAR-BBz
no binding: all assays above
